Results on 1 molecule are retold here after patent US20180265573A1.

The target in the experiment is hemagglutinin of influenza A virus A/New Caledonia/20/99 (H1) (influenza A virus A/New Caledonia/20/99 (H1)).

B1: monoclonal antibody GG3 (antibody, V domains shown)
VH: QIQLVQSGPELKKPGETVKISCKASGYTFTNYGMNWVKQAPGKGLKWMGWINIYSGESTYVDDFTGRFAFSLETSASTAYLQINNLKNEDMATYFCARSGDTMITAGRSFFAMDYWGQGTSVTVSS
VL: DIQMTQSPSSLSASLGERVSLTCRASQEISGYLSWLQQKPDGTIKRLIYAASTLDSGVPKRFSGSRSGSDYSLSISSLESEDFADYYCLQYANYPWSFGGGTKLEIK
The molecule B1 had an IC50 (read off the curve), plaque reduction neutralization assay of 6 µg/mL.
